First the molecules themselves.
B1: TA101 (antibody, V domains shown)
VH: DVQLVESGGGVARPGEFLRLSCAASGFTFRDYDMGWVRQAPGEGLEWVSSISVSGTTYYADSVKGRFTISRDNSENTLYLQMNSLTAEDTAVYYCGREDTLFHYWGLGTLVTVSS
VL: QSVLTQPPSASGTPGQRVTISCSGSTSNIGTRYVYWYQQLPGTAPKLLIYKNLQRPSGVPDRFSGSKSGTSASLAISGLQSEDEADYYCAAWDERLNGWVFGGGTKLTVL
modifications: Fc SEQ 587, CL SEQ 416
B2: TA102 (antibody, V domains shown)
VH: DVQLVESGGGVVRPGESLRLSCAASGFTFRNYDMTWVRQAPGEGLEWVATISGTDDTTYYADSVKGRATISRDNSNNTLYLRLFSLRAEDTAIYYCAREASNSFIDYWGLGTLVTVSS
VL: B1 VL with T26S, T31R, K51R, L53F, Q54E, A91S, R95S
modifications: Fc SEQ 587, CL SEQ 416
B3: TA104 (antibody, V domains shown)
VH: B1 VH with F17S
VL: B1 VL
modifications: Fc SEQ 587, CL SEQ 416
B4: TA132 (antibody, V domains shown)
VH: EVQLLESGGAFVQPGGSLRLSCAASGFTFSDYYMSWVRQAPGKGLEWVSVISNSGGSTYYTDSVKGRFTISRDNSKNTLYLQINSLRAEDTAVYYCTKDIGMTYFDYWGQGTLVTVSS
VL: QSVLTQPPSASGAPGQRVTISCSGSYSNIGNSYVSWYQQLPGTAPKLLIYLNSQRPSGVPDRFSGSKSGTSASLAISGLQSEDEADYYCAAWDDLNVWVFGGGTKLTVL
modifications: Fc SEQ 587, CL SEQ 416
B5: TA275 (antibody, V domains shown)
VH: QVTLKESGPGILQPSQTLSLTCSFSGFSLSTFGMGVGWIRQPSGKGLEWLAHIWWDDDKYYNPALKSRLTISKDTSKNQVFLKIANVDTADTATYYCARIPTRYWYFDVWGTGTTVTVSS
VL: QAVVTQESALTTSPGETVTLTCRSSTGAVTTSNYANWVQEKPDHLFTGLIGGTNNRAPGVPARFSGSLIGDKAALTITGAQTEDEAIYFCALWYSTHYVFGGGTKVTVL
modifications: Fc SEQ 587, CL SEQ 416
B6: TA289 (antibody, V domains shown)
VH: B5 VH with P101R, T102G, R103T, Y104W
VL: B5 VL with T96N, H97Q, Y98F, V99I, G102S
modifications: Fc SEQ 587, CL SEQ 416

Changes are numbered by the printed parent chain.

Among the data in US20240368283A1 are Kd, koff and kon values, retold here.

One experiment addresses cyPD1 (cynomolgus monkey). Briefly: biosensor kinetics (BLI type); antibody captured on anti-human Fc biosensor, PD-1 in solution.
B1 returned a Kd of 62.2 nM, a koff of 0.0076 s⁻¹ and a kon of 120000 M⁻¹ s⁻¹.
As to B2, the dissociation constant Kd is 7.2 nM, the koff worked out at 0.01 s⁻¹ and the kon turned out to be 1.4e+06 M⁻¹ s⁻¹.
In turn, B3 showed a Kd of 56.8 nM, a koff of 0.009 s⁻¹ and a kon of 160000 M⁻¹ s⁻¹.
Turning to B4, the Kd is 92 nM, the koff turned out to be 0.0137 s⁻¹ and the on-rate constant (kon) was 149000 M⁻¹ s⁻¹.
The molecule B5 yielded an equilibrium dissociation constant (Kd) of 987 nM, a koff of 0.2 s⁻¹ and a kon of 200000 M⁻¹ s⁻¹.
B6 showed a Kd of 1390 nM, a koff of 2.1 s⁻¹ and a kon of 1.6e+06 M⁻¹ s⁻¹.

For another experiment, the target named is huPD1 (human) (UniProt Q15116). The description is as above.
Chain of huPD1 (human) (Q15116 25-170 limits assumed): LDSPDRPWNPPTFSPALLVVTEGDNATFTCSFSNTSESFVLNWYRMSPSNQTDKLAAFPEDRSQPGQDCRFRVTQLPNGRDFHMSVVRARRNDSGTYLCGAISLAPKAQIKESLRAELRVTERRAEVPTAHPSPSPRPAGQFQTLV
Regarding B1, the Kd is 32.9 nM, the koff stood at 0.022 s⁻¹ and the association rate constant (kon) is 680000 M⁻¹ s⁻¹.
For the molecule B2, the Kd amounted to 24.8 nM, the koff was found to be 0.014 s⁻¹ and the kon came out at 540000 M⁻¹ s⁻¹.
B3: the Kd was determined as 33.1 nM and the koff worked out at 0.024 s⁻¹.
The molecule B4 returned a Kd of 5.72 nM, a koff of 0.000647 s⁻¹ and a kon of 113000 M⁻¹ s⁻¹.
For B5, the equilibrium dissociation constant (Kd) stood at 600 nM, the koff stood at 0.2 s⁻¹ and the on-rate (kon) was found to be 330000 M⁻¹ s⁻¹.
In the same order, the values of B6 are 484 nM, 1.6 s⁻¹ and 3.4e+06 M⁻¹ s⁻¹.
